Values belong to the substance of their own block, whether it stands above or below them.
Experiments:
Rod-B = assay: co-sedimentation; filament disassembly assay without His-Aurora-B; Rod-B proteins in kinase buffer (20 mM Tris pH 7.5, 10 mM MgCl2, 1 mM DTT, 50 μM ATP), 60 min at 30 °C, then high-speed centrifugation; filaments to nonfilamentous fraction
His-survivin [1] = target: His-survivin (UniProt O15392); assay: pull-down (quantification of Coomassie-stained SDS-PAGE); settings: mean ± SEM of three independent experiments; parent: est. 1.0; read off a plot
[2] = target: Rod-B phosphorylated by His-Aurora-B; assay: co-sedimentation; filament disassembly assay with His-Aurora-B; Rod-B proteins with recombinant His-Aurora-B in kinase buffer (20 mM Tris pH 7.5, 10 mM MgCl2, 1 mM DTT, 50 μM ATP), 60 min at 30 °C, then high-speed centrifugation; filaments to nonfilamentous fraction
Rod-B^T1847A [3] = assay: co-sedimentation; filament disassembly assay without His-Aurora-B; Rod-B proteins in kinase buffer (20 mM Tris pH 7.5, 10 mM MgCl2, 1 mM DTT, 50 μM ATP), 60 min at 30 °C, then high-speed centrifugation; filaments to nonfilamentous fraction
Rod-B^T1847A [4] = assay: co-sedimentation; filament disassembly assay with His-Aurora-B; Rod-B proteins with recombinant His-Aurora-B in kinase buffer (20 mM Tris pH 7.5, 10 mM MgCl2, 1 mM DTT, 50 μM ATP), 60 min at 30 °C, then high-speed centrifugation; filaments to nonfilamentous fraction
His-survivin [5] = target: His-survivin (UniProt O15392); assay: pull-down; direct pull-down; His-survivin proteins (40-45 μg) held on Ni2+-NTA beads, Rod-B proteins (40-45 μg) added; Buffer B: 20 mM Tris-HCl pH 8, 275 mM NaCl, 5% glycerol, 1% NP-40, 30 mM imidazole; 4 °C; eluted with 250 mM imidazole; Coomassie-stained SDS-PAGE

Rod-B phosphorylated by His-Aurora-B, sequence (P35580 whole entry): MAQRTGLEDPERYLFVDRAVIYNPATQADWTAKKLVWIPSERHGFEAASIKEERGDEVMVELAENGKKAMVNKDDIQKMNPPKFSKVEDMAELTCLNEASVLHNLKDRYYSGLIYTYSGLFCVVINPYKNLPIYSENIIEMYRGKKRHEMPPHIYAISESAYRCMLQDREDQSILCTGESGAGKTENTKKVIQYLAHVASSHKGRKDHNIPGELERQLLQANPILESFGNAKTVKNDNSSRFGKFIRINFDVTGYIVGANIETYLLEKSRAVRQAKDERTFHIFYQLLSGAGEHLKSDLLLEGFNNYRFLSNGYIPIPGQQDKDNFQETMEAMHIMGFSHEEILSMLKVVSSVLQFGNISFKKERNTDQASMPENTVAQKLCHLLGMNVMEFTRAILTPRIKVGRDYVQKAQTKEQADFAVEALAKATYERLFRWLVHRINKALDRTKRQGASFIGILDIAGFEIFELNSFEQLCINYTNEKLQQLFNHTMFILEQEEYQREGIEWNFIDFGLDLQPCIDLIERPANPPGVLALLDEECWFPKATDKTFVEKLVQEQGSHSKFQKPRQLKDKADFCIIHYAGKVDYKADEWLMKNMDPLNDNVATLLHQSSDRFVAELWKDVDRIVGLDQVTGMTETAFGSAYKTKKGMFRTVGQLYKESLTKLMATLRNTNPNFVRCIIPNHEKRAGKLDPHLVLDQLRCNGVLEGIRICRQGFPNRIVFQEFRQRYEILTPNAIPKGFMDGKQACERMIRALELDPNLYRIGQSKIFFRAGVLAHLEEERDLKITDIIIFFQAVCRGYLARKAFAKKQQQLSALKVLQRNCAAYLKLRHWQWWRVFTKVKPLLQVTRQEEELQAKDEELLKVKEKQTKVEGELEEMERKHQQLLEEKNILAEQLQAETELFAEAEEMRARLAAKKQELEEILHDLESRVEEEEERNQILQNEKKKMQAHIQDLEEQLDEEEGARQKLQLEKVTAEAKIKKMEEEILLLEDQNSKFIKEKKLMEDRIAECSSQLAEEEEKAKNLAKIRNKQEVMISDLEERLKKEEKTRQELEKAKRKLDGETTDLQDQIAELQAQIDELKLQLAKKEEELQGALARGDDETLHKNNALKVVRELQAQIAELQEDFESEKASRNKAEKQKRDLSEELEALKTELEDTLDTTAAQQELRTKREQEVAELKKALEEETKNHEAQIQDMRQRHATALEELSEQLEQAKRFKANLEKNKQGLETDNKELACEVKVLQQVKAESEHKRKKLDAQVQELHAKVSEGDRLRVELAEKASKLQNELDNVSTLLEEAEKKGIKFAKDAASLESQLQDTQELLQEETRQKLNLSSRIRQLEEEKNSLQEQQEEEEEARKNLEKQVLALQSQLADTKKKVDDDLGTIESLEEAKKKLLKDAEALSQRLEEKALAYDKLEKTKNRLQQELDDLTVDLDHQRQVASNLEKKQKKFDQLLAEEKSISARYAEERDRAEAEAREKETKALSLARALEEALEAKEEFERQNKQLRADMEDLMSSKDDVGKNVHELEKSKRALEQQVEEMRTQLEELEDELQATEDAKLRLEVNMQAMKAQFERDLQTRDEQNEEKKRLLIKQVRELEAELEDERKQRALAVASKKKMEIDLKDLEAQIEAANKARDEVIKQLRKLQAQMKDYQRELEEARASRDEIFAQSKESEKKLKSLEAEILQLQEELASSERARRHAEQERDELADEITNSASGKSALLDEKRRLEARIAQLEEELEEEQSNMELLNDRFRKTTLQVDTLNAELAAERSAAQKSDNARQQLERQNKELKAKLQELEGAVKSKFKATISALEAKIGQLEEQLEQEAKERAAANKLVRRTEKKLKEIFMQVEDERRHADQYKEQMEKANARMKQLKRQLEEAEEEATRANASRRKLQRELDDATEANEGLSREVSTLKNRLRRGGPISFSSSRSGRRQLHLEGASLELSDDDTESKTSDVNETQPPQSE
Rod-B, sequence (P35580 whole entry): as above

Substance: Rod-B T1847A
ratio to parent (His-survivin [1]): 1.1

Substance: Rod-B phosphorylated by His-Aurora-B (domain or fragment)
percent in the nonfilamentous fraction [2]: 42%

Substance: Rod-B^T1847D (domain or fragment)
percent reduction of binding to survivin relative to Rod-B (His-survivin [5]): 80%

Other lines, results leading:

percent in the nonfilamentous fraction (Rod-B): 28%
Substance: Rod-B (domain or fragment)

percent in the nonfilamentous fraction (Rod-B^T1847A [3]): 34% | percent in the nonfilamentous fraction (Rod-B^T1847A [4]): 36.8%
Substance: Rod-B^T1847A (domain or fragment)

Reference: article PMC8385403
